The assay addresses T1, Aquaporin Z with a C-terminal Strep-tag II (AqpZ-STII) (Escherichia coli), P60844.
T1 chain: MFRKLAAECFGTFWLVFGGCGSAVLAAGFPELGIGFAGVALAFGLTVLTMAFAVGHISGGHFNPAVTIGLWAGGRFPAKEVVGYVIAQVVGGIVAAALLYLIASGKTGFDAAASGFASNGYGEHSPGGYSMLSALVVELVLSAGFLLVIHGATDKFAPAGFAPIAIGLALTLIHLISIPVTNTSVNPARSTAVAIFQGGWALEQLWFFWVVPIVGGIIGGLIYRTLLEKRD
The assay can be described thus: native MS. Conditions: remark: other sources report otherwise.

B1: Aquaporin Z with a C-terminal Strep-tag II (AqpZ-STII), P60844 1-231 (natural protein)
chain: T1 chain
B1 yielded a stoichiometry N of 4.

Usually stoichiometry N stands for a count of units in the complex or per binding partner.
